These results are taken from patent US20210388105A1 (ELPISCIENCE SUZHOU BIOPHARMA, published 2021).

The assay addresses T1, human CD39 (full length, on cells) (human, UniProt P49961 1-510).
T1 construct: Recombinant on CHOK1-hCD39 cells or natural on SK-MEL-28, SK-MEL-5 and MOLP-8 cells; the cell line is named under assay; also called hCD39; ENTPD1
T1 sequence: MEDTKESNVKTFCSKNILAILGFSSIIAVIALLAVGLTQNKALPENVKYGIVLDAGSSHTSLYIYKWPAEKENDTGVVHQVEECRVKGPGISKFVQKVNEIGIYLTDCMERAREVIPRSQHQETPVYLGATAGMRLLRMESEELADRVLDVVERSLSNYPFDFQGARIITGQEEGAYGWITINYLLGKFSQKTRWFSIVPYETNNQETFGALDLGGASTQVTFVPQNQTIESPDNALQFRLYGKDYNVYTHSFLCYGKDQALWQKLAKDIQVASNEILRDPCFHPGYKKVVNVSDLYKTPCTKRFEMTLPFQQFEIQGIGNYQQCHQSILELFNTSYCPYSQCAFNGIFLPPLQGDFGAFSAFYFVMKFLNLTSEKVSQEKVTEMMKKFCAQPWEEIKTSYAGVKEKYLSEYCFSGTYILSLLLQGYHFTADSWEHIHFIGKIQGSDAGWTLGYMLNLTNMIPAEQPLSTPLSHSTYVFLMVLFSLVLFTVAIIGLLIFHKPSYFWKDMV
Put plainly: FACS, MOLP-8 cells. The method, then: Similarly, human CD39 expressing cells SK-MEL-5, SK-MEL-28 or MOLP-8, were incubated with a gradient concentration of anti-CD39 antibodies for 30 minutes at 4° C. Cells were washed 3 times using FACS buffer and next incubated with fluorescence labelled secondary antibody (goat-anti-mouse IgG or goat anti-human IgG) for 30 minutes at 4° C. Cells were washed 3 times and then re-suspended in FACS buffer and analyzed by flow cytometry analysis on BD Celesta. Data plotted and analyzed using GraphPad Prism 8.02.
The binding affinity of the humanized antibodies for c23 was determined by FACS, using similar methods as described in Example 3.2. The c23 humanized antibody clones showing good binding affinity are listed in below Table 19 and Table 20, and also shown in FIGS. 7A, 7B and FIG. 8. EC₅₀ is the concentration of the indicated antibodies to reach 50% of the signal in this assay.
On the technique in general: A flow cytometer gives signals particle by particle.

B1: hu23.H7L7 (antibody, V domains shown)
VH: EVQLVQSGAEVKKPGASVKLSCKASGYNLKDTFLHWVKQAPGQGLEWIGRIDPANGNIKYDPKFQGKATLTADTSANTAYLELISLRSEDTAVYYCANSPYYYGSGYRIFDVWGQGTTVTVSS
VL: QIVLTQSPATLSASPGERVTITCSAFSSVNYMHWYQQKPGQAPKLLIYTTSNLASGVPTRFSGSGSGTSYTLTISSMEPEDFAVYYCQQRSTYPFTFGQGTKLEIK
notes: humanized c23
As a reminder, the EC50 is the concentration giving half of the maximal effect. Consider B1, for which it took 0.25 nM to reach a half-maximal effect (EC50).

B2: hu23.H1L1 (antibody, V domains shown)
VH: QVQLVQSGAEVKKPGASVKVSCKASGYNLKDTFLHWVRQAPGQRLEWMGRIDPANGNIKYDPKFQGRVTITRDTSASTAYMELSSLRSEDTAVYYCARSPYYYGSGYRIFDVWGQGTTVTVSS
VL: EIVLTQSPATLSLSPGERATLSCSAFSSVNYMHWYQQKPGQAPRLLIYTTSNLASGIPARFSGSGSGTDFTLTISSLEPEDFAVYYCQQRSTYPFTFGQGTKLEIK
notes: humanized c23
Molecule B2 yielded a concentration giving a half-maximal response (EC50) of roughly 77.1 nM.

B3: hu23.H6L6 (antibody, V domains shown)
VH: EVQLVQSGAEVKKPGASVKLSCKASGYNLKDTFLHWVRQAPGQGLEWIGRIDPANGNIKYDPKFQGRATITADTSANTAYMELISLRSEDTAVYYCANSPYYYGSGYRIFDVWGQGTTVTVSS
VL: QIVLTQSPATLSASPGERATLSCSAFSSVNYMHWYQQKPGQAPKLLIYTTSNLASGVPTRFSGSGSGTSYTLTISSMEPEDFAVYYCQQRSTYPFTFGQGTKLEIK
notes: humanized c23
Consider B3, for which the EC50 was determined as 0.237 nM.

B4: hu23.H6L7 (antibody, V domains shown)
VH: EVQLVQSGAEVKKPGASVKLSCKASGYNLKDTFLHWVRQAPGQGLEWIGRIDPANGNIKYDPKFQGRATITADTSANTAYMELISLRSEDTAVYYCANSPYYYGSGYRIFDVWGQGTTVTVSS
VL: QIVLTQSPATLSASPGERVTITCSAFSSVNYMHWYQQKPGQAPKLLIYTTSNLASGVPTRFSGSGSGTSYTLTISSMEPEDFAVYYCQQRSTYPFTFGQGTKLEIK
notes: humanized c23
Molecule B4 registered an EC50 of 0.122 nM. Compared with the last molecule, the EC50 is about 1.9-fold lower.

B5: hu23.H3L3 (antibody, V domains shown)
VH: QVQLVQSGAEVKKPGASVKLSCKASGYNLKDTFLHWVRQAPGQGLEWIGRIDPANGNIKYDPKFQGRATITADTSASTAYMELSSLRSEDTAVYYCANSPYYYGSGYRIFDVWGQGTTVTVSS
VL: EIVLTQSPATLSASPGERATLSCSAFSSVNYMHWYQQKPGQAPRLLIYTTSNLASGIPARFSGSGSGTDYTLTISSMEPEDFAVYYCQQRSTYPFTFGQGTKLEIK
notes: humanized c23
Take B5: the midpoint of the response, the EC50, lay at 3.29 nM.

B6: hu23.H4L3 (antibody, V domains shown)
VH: QVQLVQSGAEVKKPGASVKLSCKASGYNLKDTFLHWVKQAPGQGLEWIGRIDPANGNIKYDPKFQGRATLTADTSASTAYLELSSLRSEDTAVYYCANSPYYYGSGYRIFDVWGQGTTVTVSS
VL: EIVLTQSPATLSASPGERATLSCSAFSSVNYMHWYQQKPGQAPRLLIYTTSNLASGIPARFSGSGSGTDYTLTISSMEPEDFAVYYCQQRSTYPFTFGQGTKLEIK
notes: humanized c23
As to B6, the EC50 turned out to be 1.87 nM.

B7: hu23.H4L1 (antibody, V domains shown)
VH: QVQLVQSGAEVKKPGASVKLSCKASGYNLKDTFLHWVKQAPGQGLEWIGRIDPANGNIKYDPKFQGRATLTADTSASTAYLELSSLRSEDTAVYYCANSPYYYGSGYRIFDVWGQGTTVTVSS
VL: EIVLTQSPATLSLSPGERATLSCSAFSSVNYMHWYQQKPGQAPRLLIYTTSNLASGIPARFSGSGSGTDFTLTISSLEPEDFAVYYCQQRSTYPFTFGQGTKLEIK
notes: humanized c23
Turning to B7, the binding result is on record as “no binding”.

B8: hu23.H2L3 (antibody, V domains shown)
VH: QVQLVQSGAEVKKPGASVKVSCKASGYNLKDTFLHWVRQAPGQGLEWMGRIDPANGNIKYDPKFQGRVTITADTSASTAYMELSSLRSEDTAVYYCANSPYYYGSGYRIFDVWGQGTTVTVSS
VL: EIVLTQSPATLSASPGERATLSCSAFSSVNYMHWYQQKPGQAPRLLIYTTSNLASGIPARFSGSGSGTDYTLTISSMEPEDFAVYYCQQRSTYPFTFGQGTKLEIK
notes: humanized c23
As to B8, the half-maximal effective concentration (EC50) is 2.03 nM.

B9: hu23.H5L7 (antibody, V domains shown)
VH: QVQLVQSGAEVKKPGASVKVSCKASGYNLKDTFLHWVRQAPGQGLEWMGRIDPANGNIKYDPKFQGRVTITADTSANTAYMELISLRSEDTAVYYCANSPYYYGSGYRIFDVWGQGTTVTVSS
VL: QIVLTQSPATLSASPGERVTITCSAFSSVNYMHWYQQKPGQAPKLLIYTTSNLASGVPTRFSGSGSGTSYTLTISSMEPEDFAVYYCQQRSTYPFTFGQGTKLEIK
notes: humanized c23
Consider B9, for which the concentration giving a half-maximal response (EC50) came to 0.179 nM. Against the preceding molecule, the EC50 is about 11-fold lower.

B10: hu23.H3L4 (antibody, V domains shown)
VH: QVQLVQSGAEVKKPGASVKLSCKASGYNLKDTFLHWVRQAPGQGLEWIGRIDPANGNIKYDPKFQGRATITADTSASTAYMELSSLRSEDTAVYYCANSPYYYGSGYRIFDVWGQGTTVTVSS
VL: EIVLTQSPATLSASPGERVTISCSAFSSVNYMHWYQQKPGQAPRLLIYTTSNLASGIPARFSGSGSGTDYTLTISSMEPEDFAVYYCQQRSTYPFTFGQGTKLEIK
notes: humanized c23
For the molecule B10, a half-maximal effect (EC50) was put at 1.61 nM.

B11: hu23.H6L5 (antibody, V domains shown)
VH: EVQLVQSGAEVKKPGASVKLSCKASGYNLKDTFLHWVRQAPGQGLEWIGRIDPANGNIKYDPKFQGRATITADTSANTAYMELISLRSEDTAVYYCANSPYYYGSGYRIFDVWGQGTTVTVSS
VL: QIVLTQSPATLSLSPGERATLSCSAFSSVNYMHWYQQKPGQAPRLLIYTTSNLASGIPTRFSGSGSGTSYTLTISSLEPEDFAVYYCQQRSTYPFTFGQGTKLEIK
notes: humanized c23
Consider B11, for which the midpoint of the response, the EC50, lay at 0.593 nM.

B12: hu23.H6L1 (antibody, V domains shown)
VH: EVQLVQSGAEVKKPGASVKLSCKASGYNLKDTFLHWVRQAPGQGLEWIGRIDPANGNIKYDPKFQGRATITADTSANTAYMELISLRSEDTAVYYCANSPYYYGSGYRIFDVWGQGTTVTVSS
VL: EIVLTQSPATLSLSPGERATLSCSAFSSVNYMHWYQQKPGQAPRLLIYTTSNLASGIPARFSGSGSGTDFTLTISSLEPEDFAVYYCQQRSTYPFTFGQGTKLEIK
notes: humanized c23
As for B12, a half-maximal effect (EC50) was put at 0.246 nM.

B13: hu23.H3L2 (antibody, V domains shown)
VH: QVQLVQSGAEVKKPGASVKLSCKASGYNLKDTFLHWVRQAPGQGLEWIGRIDPANGNIKYDPKFQGRATITADTSASTAYMELSSLRSEDTAVYYCANSPYYYGSGYRIFDVWGQGTTVTVSS
VL: EIVLTQSPATLSLSPGERATLSCSAFSSVNYMHWYQQKPGQAPRLLIYTTSNLASGIPARFSGSGSGTDYTLTISSLEPEDFAVYYCQQRSTYPFTFGQGTKLEIK
notes: humanized c23
With B13, the response was half-maximal at 1.34 nM (EC50).

B14: hu23.H2L1 (antibody, V domains shown)
VH: QVQLVQSGAEVKKPGASVKVSCKASGYNLKDTFLHWVRQAPGQGLEWMGRIDPANGNIKYDPKFQGRVTITADTSASTAYMELSSLRSEDTAVYYCANSPYYYGSGYRIFDVWGQGTTVTVSS
VL: EIVLTQSPATLSLSPGERATLSCSAFSSVNYMHWYQQKPGQAPRLLIYTTSNLASGIPARFSGSGSGTDFTLTISSLEPEDFAVYYCQQRSTYPFTFGQGTKLEIK
notes: humanized c23
The molecule B14 showed an EC50 of 65.9 nM.

B15: hu23.H5L1 (antibody, V domains shown)
VH: QVQLVQSGAEVKKPGASVKVSCKASGYNLKDTFLHWVRQAPGQGLEWMGRIDPANGNIKYDPKFQGRVTITADTSANTAYMELISLRSEDTAVYYCANSPYYYGSGYRIFDVWGQGTTVTVSS
VL: EIVLTQSPATLSLSPGERATLSCSAFSSVNYMHWYQQKPGQAPRLLIYTTSNLASGIPARFSGSGSGTDFTLTISSLEPEDFAVYYCQQRSTYPFTFGQGTKLEIK
notes: humanized c23
Take B15: the EC50 worked out at 0.262 nM.

B16: hu23.H4L2 (antibody, V domains shown)
VH: QVQLVQSGAEVKKPGASVKLSCKASGYNLKDTFLHWVKQAPGQGLEWIGRIDPANGNIKYDPKFQGRATLTADTSASTAYLELSSLRSEDTAVYYCANSPYYYGSGYRIFDVWGQGTTVTVSS
VL: EIVLTQSPATLSLSPGERATLSCSAFSSVNYMHWYQQKPGQAPRLLIYTTSNLASGIPARFSGSGSGTDYTLTISSLEPEDFAVYYCQQRSTYPFTFGQGTKLEIK
notes: humanized c23
As for B16, the EC50 is 1.15 nM. Compared with the last molecule, the EC50 is about 4.4-fold higher.

B17: hu23.H2L4 (antibody, V domains shown)
VH: QVQLVQSGAEVKKPGASVKVSCKASGYNLKDTFLHWVRQAPGQGLEWMGRIDPANGNIKYDPKFQGRVTITADTSASTAYMELSSLRSEDTAVYYCANSPYYYGSGYRIFDVWGQGTTVTVSS
VL: EIVLTQSPATLSASPGERVTISCSAFSSVNYMHWYQQKPGQAPRLLIYTTSNLASGIPARFSGSGSGTDYTLTISSMEPEDFAVYYCQQRSTYPFTFGQGTKLEIK
notes: humanized c23
B17 displayed an EC50 of 1.46 nM. This EC50 and that of the molecule before are within 1.5-fold of each other.

B18: hu23.H1L3 (antibody, V domains shown)
VH: QVQLVQSGAEVKKPGASVKVSCKASGYNLKDTFLHWVRQAPGQRLEWMGRIDPANGNIKYDPKFQGRVTITRDTSASTAYMELSSLRSEDTAVYYCARSPYYYGSGYRIFDVWGQGTTVTVSS
VL: EIVLTQSPATLSASPGERATLSCSAFSSVNYMHWYQQKPGQAPRLLIYTTSNLASGIPARFSGSGSGTDYTLTISSMEPEDFAVYYCQQRSTYPFTFGQGTKLEIK
notes: humanized c23
B18 showed an EC50 of 2.77 nM.
